Publication PMC5134096

Biological target: soluble manganese peroxidase (MnP) from Irpex lacteus F17 (Irpex lacteus F17)
Assay: SEC + other: dynamic light scattering; soluble MnP after Ni-NTA; HiLoad 16/60 Superdex 200 in 20 mM Tris-HCl pH 8.0, 200 mM NaCl; SEC peak II, DLS at room temperature at 0.1 mg/ml in the same buffer

stoichiometry N: 2
Substance: soluble manganese peroxidase (MnP) from Irpex lacteus F17 (enzyme)
